From patent US6960440 (TRUSTES OF COLUMBIA UNIVERSITY IN THE CITY OF NEW YORK, dated 2005) come the findings set out here.

This data set deals with the molecule itself. Kind of data set: SDS-PAGE and Western blot of NADE overexpressed in 293T cells, wild type against Cys-to-Ser mutants. On the technique in general: In western blotting, separated proteins are transferred to a membrane and probed.

B1: Myc-tagged mouse NADE expressed in 293T cells (pcDNA3.1(-)Myc-HisA/NADE) (other, not shown: small tags and cut ends)
chain: MANVHQENEEMEQPLQNGEEDRPVGGGEGHQPAGNNNNNNHNHNHNHHRRGQARRLAPNFRWAIPNRQMNDGLGGDGDDMEMFMEEMREIRRKLRELQLRNCLRILMGELSNHHDHHDEFCLMP
notes: It runs as 22 kDa and 44 kDa bands; also called Myc-tagged NADE; wild type NADE
For B1, the binding result is on record as “binds”.
